Results reported in IntAct's records for PubMed 23322602.

Biological target: adt2_human SLC25A5 (UniProt P05141)
Sequence (P05141 whole entry): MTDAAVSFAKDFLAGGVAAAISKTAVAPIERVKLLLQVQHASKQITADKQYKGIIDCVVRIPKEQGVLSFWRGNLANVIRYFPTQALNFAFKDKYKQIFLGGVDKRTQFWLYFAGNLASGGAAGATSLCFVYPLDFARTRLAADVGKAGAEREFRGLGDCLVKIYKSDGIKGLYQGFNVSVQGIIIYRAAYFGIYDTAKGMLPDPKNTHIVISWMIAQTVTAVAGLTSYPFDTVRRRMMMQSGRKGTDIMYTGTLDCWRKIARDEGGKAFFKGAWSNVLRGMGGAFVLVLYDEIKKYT

Sequence of Cytoplasmic protein NCK2 (Homo sapiens), O43639 R311K (O43639 whole entry R311K): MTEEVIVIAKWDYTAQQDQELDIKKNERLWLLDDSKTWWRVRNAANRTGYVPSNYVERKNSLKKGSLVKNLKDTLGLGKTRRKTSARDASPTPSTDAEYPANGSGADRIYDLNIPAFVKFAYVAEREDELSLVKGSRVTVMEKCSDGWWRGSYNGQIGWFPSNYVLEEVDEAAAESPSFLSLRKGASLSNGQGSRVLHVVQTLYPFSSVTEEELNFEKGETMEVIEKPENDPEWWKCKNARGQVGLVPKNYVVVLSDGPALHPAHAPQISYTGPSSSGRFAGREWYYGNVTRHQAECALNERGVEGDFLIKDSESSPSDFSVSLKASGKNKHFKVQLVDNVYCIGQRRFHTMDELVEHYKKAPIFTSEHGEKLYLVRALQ

Substance: Cytoplasmic protein NCK2 (Homo sapiens), O43639 R311K
- effect of a mutation on the interaction: disrupting interaction
